Paper PMC11956251 (BMC Microbiology, 2025)

Target: T1, His-FtsZ fusion protein (Streptococcus suis SC19, UniProt A0A0H3MXZ7 1-409)
T1 sequence (looked up): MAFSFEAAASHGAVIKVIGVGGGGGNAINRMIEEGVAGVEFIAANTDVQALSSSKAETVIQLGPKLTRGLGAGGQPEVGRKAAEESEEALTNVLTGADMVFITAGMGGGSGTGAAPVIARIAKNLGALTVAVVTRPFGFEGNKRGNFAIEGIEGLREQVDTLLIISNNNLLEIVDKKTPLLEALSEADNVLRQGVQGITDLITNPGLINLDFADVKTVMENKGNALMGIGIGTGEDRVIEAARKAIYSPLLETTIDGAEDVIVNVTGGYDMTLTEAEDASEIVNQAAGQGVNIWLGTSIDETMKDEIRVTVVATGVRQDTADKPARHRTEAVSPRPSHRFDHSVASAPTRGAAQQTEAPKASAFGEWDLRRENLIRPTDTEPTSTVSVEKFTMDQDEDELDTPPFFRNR
Assay: BLI

B1: SepF labeled with biotin (natural protein, Streptococcus suis SC19, UniProt A4VTL1 1-187, looked up)
chain: MALKDTFKNLFNYFEVDEVNEVEEQADAYSMPNDRPKMRVANTTVAPVREQQPKVETRREARSESQLQRLHERQQELMTNNNEKEIVKTTIDIKFPKRYEDAPEMVNLLLDNASILIDFQYMSEQQARRCLDYLDGARSVLSGNLKKVSNTMWLLTPVNVTVNIEELRNAGTTTGVADSNFEFDIKR
modifications: biotin (biotin labeling kit; sites not stated)
B1 showed a Kd of 0.67 nM.
